In paper PMC11911400, “Mechanism of ASF1 engagement by CDAN1” (Nature Communications, 2025):

B1: Strep-tagged CDAN1 (ST-CDAN1), wildtype (natural protein, human)
chain: MAAVLESLLREEVSVAAVVRWIARSTQGSEDNAGEAAALSSLRALRKEFVPFLLNFLREQSSRVLPQGPPTPAKTPGASAALPGRPGGPPRGSRGARSQLFPPTEAQSTAAEAPLARRGGRRRGPGPARERGGRGLEEGVSGESLPGAGGRRLRGSGSPSRPSLTLSDPPNLSNLEEFPPVGSVPPGPTGTKPSRRINPTPVSEERSLSKPKTCFTSPPISCVPSSQPSALDTSPWGLGLPPGCRSLQEEREMLRKERSKQLQQSPTPTCPTPELGSPLPSRTGSLTDEPADPARVSSRQRLELVALVYSSCIAENLVPNLFLELFFVFQLLTARRMVTAKDSDPELSPAVLDSLESPLFQSIHDCVFFAVQVLECHFQVLSNLDKGTLKLLAENERLLCFSPALQGRLRAAYEGSVAKVSLVMPPSTQAVSFQPETDNRANFSSDRAFHTFKKQRDVFYEVLREWEDHHEEPGWDFEKGLGSRIRAMMGQLSAACSHSHFVRLFQKQLLQMCQSPGGAGGTVLGEAPDVLSMLGADKLGRLWRLQERLMAPQSSGGPCPPPTFPGCQGFFRDFILSASSFQFNQHLMDSLSLKIQELNGLALPQHEPNDEDGESDVDWQGERKQFAVVLLSLRLLAKFLGFVAFLPYRGPEPPPTGELQDSILALRSQVPPVLDVRTLLQRGLQARRAVLTVPWLVEFLSFADHVVPLLEYYRDIFTLLLRLHRSLVLSQESEGKMCFLNKLLLLAVLGWLFQIPTVPEDLFFLEEGPSYAFEVDTVAPEHGLDNAPVVDQQLLYTCCPYIGELRKLLASWVSGSSGRSGGFMRKITPTTTTSLGAQPSQTSQGLQAQLAQAFFHNQPPSLRRTVEFVAERIGSNCVKHIKATLVADLVRQAESLLQEQLVTQGEEGGDPAQLLEILCSQLCPHGAQALALGREFCQRKSPGAVRALLPEETPAAVLSSAENIAVGLATEKACAWLSANITALIRREVKAAVSRTLRAQGPEPAARGERRGCSRACEHHAPLPSHLISEIKDVLSLAVGPRDPDEGVSPEHLEQLLGQLGQTLRCRQFLCPPAEQHLAKCSVELASLLVADQIPILGPPAQYRLERGQARRLLHMLLSLWKEDFQGPVPLQLLLSPRNVGLLADTRPREWDLLLFLLRELVEKGLMGRMEIEACLGSLHQAQWPGDFAEELATLSNLFLAEPHLPEPQLRACELVQPNRGTVLAQS
notes: Codanin-1 (CDAN1), human, 1227 residues; cDNA from Horizon Discovery/Dharmacon, its point mutation S421F corrected; same construct used in Expi293 and in Flp-In 293 T-REx cells; dimer by SEC-MALS and cryo-EM; also called Strep-CDAN1; WT CDAN1; source: Expi293, transiently transfected, in lysate and purified in complexes (anti-FLAG, Strep-Tactin); Flp-In 293 T-REx, transiently transfected, in …
B3: FLAG-tagged CDIN1 (F-CDIN1) (natural protein, UniProt Q9Y2V0 1-281, looked up)
chain: MILTKAQYDEIAQCLVSVPPTRQSLRKLKQRFPSQSQATLLSIFSQEYQKHIKRTHAKHHTSEAIESYYQRYLNGVVKNGAAPVLLDLANEVDYAPSLMARLILERFLQEHEETPPSKSIINSMLRDPSQIPDGVLANQVYQCIVNDCCYGPLVDCIKHAIGHEHEVLLRDLLLEKNLSFLDEDQLRAKGYDKTPDFILQVPVAVEGHIIHWIESKASFGDECSHHAYLHDQFWSYWNRFGPGLVIYWYGFIQELDCNRERGILLKACFPTNIVTLCHSIA
notes: C15orf41); cDNA synthesized by IDT; source: Expi293, transiently transfected, in lysate and purified in complexes (anti-FLAG, Strep-Tactin); not shown: 3xFLAG, N-terminal, kept

Legend:
[1] = molecular target: the molecule itself; assay: SEC-MALS; 200 µg of each purified complex at 5 µM on SRT SEC-300 column, PBS pH 7.4 with 1 mM DTT; DAWN HELEOS II; dn/dc 0.185
[2] = molecular target: the molecule itself; assay: cryo-EM structure; tandem-purified C:C:A complex cross-linked with 250 µM BS3, 1 mg/mL; single-particle cryo-EM, 3.0 to 3.5 Å
[3] = molecular target: B3; assay: cryo-EM structure; purified ST-CDAN1C:F-CDIN1 (C:C) complex, cross-linked with BS3, 0.78 mg/mL; ~6 Å reconstruction, no model built; conditions: both partners purified
[4] = molecular target: B1; assay: SEC-MALS; 200 µg of each purified complex at 5 µM on SRT SEC-300 column, PBS pH 7.4 with 1 mM DTT; DAWN HELEOS II; dn/dc 0.185; conditions: both partners purified

Binder: B1
- stoichiometry N [1]: 2 CDAN1 per complex
- stoichiometry N [2]: 2

B2: Strep-CDAN1C (CDAN1 MA3 domain, residues 1008-1227) (domain or fragment, human, UniProt Q8IWY9 1008-1227, looked up)
chain: GERRGCSRACEHHAPLPSHLISEIKDVLSLAVGPRDPDEGVSPEHLEQLLGQLGQTLRCRQFLCPPAEQHLAKCSVELASLLVADQIPILGPPAQYRLERGQARRLLHMLLSLWKEDFQGPVPLQLLLSPRNVGLLADTRPREWDLLLFLLRELVEKGLMGRMEIEACLGSLHQAQWPGDFAEELATLSNLFLAEPHLPEPQLRACELVQPNRGTVLAQS
notes: also called ST-CDAN1C; CDAN1 C-term; source: Expi293, transiently transfected, purified in complex with F-CDIN1 (anti-FLAG, Strep-Tactin); not shown: 3xStrep-II-TEV, N-terminal, kept
- binding result [3]: binds

Binder: B3
- stoichiometry N [4]: 2 CDIN1 per two CDAN1
